Values quoted from earlier work, collected in patent US7266483B2, “System and methods for optimized drug delivery and progression of diseased and normal cells” (Optimata Ltd., priority 2000, dated 2007).

How the values were obtained:
[1] = modeled as exponential distribution, held constant
post mitotic compartment = settings: counts made on day 5 after G-CSF administration; noted by Price
[2] = average model parameter calculated from published data

Molecule | a, TPO-clearing ability of the receptors [2] | f, coefficient of non-specific TPO clearance [2] [h⁻¹] | relation coefficient of initial maximum TPO blood concentration (xi) to administered intravenous (IV) dose (s) (linear relation, xi=0.0167·si) | half-life of G-CSF in the blood [1] [h] | number of cells in the post mitotic compartment following administration of G-CSF (post mitotic compartment)
TPO: Thrombopoiesis-controlling cytokine, glycoprotein of about 350 amino acids; term covers its recombinant forms and analogs | 38 pg/ml/hr/receptor molecule | 0.1 | 0.0167 | – | –
G-CSF: Granulocyte-Colony Stimulating Factor; generates an increase in blood Neutrophil levels (protein, UniProt P09919 31-207, looked up) Granulocyte …: TPLGPASSLPQSFLLKCLEQVRKIQGDGAALQEKLVSECATYKLCHPEELVLLGHSLGIPWAPLSSCPSQALQLAGCLSQLHSGLFLYQGLLQALEGISPELGPTLDTLQLDVADFATTIWQQMEELGMAPALQPTQGAMPAFASAFQRRAGGVLVASHLQSFLEVSYRVLRHLAQP | – | – | – | 3.5 | not significantly changed
